Test [1] deals with wild-type human thyrotropin receptor (TSHR) (human) (UniProt P16473). Description: inhibition of 125I-TSH binding to monolayers of cells expressing human TSHR.
Test [2] has as its target gain-of-function TSHR mutant I486F (human) (UniProt P16473). In words: cell-based or functional assay.
The target of test [3] is wild-type human thyrotropin receptor (TSHR) (human) (UniProt P16473). In words: cell-based or functional assay.
Test [4] has as its target gain-of-function TSHR mutant S281I (human) (UniProt P16473). In words: cell-based or functional assay.
In test [5] the target is gain-of-function TSHR mutant A623I (human) (UniProt P16473). Description: cell-based or functional assay.
Test [6] addresses gain-of-function TSHR mutant I568T (human) (UniProt P16473). In words: cell-based or functional assay.

Take “monoclonal antibody CS-17 (produced by hybridoma CS-17, ATCC accession number PTA-8174)”: the percent suppression of TSH binding at 10 µg/ml in test [1] was determined as 35%. Moreover, the CS-17 concentration producing half-maximal inhibition (IC50) of constitutive cAMP in test [2], in test [3], in test [4], in test [5] and in test [6] was 1 µg/mL throughout. In test [3], this substance gave a half maximal inhibitory concentration for TSHR constitutive activity (intracellular cAMP) of 6.7 nM. The inverse agonist activity at 10 µg/ml (percent) in test [3] fell in the range of 60 to 90%. The same substance displayed a reduction of constitutive activity at 10 µg/ml (percent) in test [3] greater than 60%.

Source of the values: patent publication US20110014200A1.
